Legend:
[1] = target: T1, G-CSFR(Ig-CRH)E design 30, purified, tag cleaved (human, UniProt Q99062 26-331); assay: SPR (Biacore T200), WT G-CSF vs design receptor; KD relative to WT:WT control (larger = weaker)
T1 construct: also called Design 30 G-CSFR(Ig-CRH)E
T1 chain: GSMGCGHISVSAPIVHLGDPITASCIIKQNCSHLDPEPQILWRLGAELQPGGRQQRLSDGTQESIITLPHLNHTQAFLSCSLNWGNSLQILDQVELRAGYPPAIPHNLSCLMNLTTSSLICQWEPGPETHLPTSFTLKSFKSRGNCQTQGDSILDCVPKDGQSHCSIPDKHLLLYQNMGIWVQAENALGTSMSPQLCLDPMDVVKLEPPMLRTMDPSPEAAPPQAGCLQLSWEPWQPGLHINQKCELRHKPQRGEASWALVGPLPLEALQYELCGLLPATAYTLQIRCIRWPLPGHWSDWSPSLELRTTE

[2] = target: T2, G-CSFR(Ig-CRH)E design 35, purified, tag cleaved (human, UniProt Q99062 26-331); assay: as above
T2 construct: SPR protein; also called Design #35 G-CSFR(Ig-CRH)E
T2 chain: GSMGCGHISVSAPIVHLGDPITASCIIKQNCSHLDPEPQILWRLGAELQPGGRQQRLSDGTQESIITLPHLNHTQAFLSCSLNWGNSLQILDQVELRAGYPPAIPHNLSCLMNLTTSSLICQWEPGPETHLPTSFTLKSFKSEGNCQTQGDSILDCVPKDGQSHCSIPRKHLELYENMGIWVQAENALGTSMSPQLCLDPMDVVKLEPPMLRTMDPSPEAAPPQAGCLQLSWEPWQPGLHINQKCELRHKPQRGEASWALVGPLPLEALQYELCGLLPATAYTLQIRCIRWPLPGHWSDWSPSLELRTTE

[3] = target: T3, G-CSFR(Ig-CRH)E design 9, purified, tag cleaved (human, UniProt Q99062 26-331); assay: SPR (Biacore T200)
T3 construct: SPR protein; also called Design 9 G-CSFR(Ig-CRH)E
T3 chain: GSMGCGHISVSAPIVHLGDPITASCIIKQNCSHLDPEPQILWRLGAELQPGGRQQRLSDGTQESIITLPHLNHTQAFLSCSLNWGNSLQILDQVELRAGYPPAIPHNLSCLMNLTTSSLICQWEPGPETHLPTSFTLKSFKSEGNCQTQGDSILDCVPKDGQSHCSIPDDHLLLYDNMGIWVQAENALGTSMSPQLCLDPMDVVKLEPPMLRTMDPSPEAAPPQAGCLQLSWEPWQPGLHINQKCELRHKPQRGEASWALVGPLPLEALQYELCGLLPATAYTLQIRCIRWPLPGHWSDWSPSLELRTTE

[4] = target: T4, G-CSFR(Ig-CRH)E design 34, purified, tag cleaved (human, UniProt Q99062 26-331); assay: SPR (Biacore T200)
T4 construct: SPR protein; also called Design 34 G-CSFR(Ig-CRH)E
T4 chain: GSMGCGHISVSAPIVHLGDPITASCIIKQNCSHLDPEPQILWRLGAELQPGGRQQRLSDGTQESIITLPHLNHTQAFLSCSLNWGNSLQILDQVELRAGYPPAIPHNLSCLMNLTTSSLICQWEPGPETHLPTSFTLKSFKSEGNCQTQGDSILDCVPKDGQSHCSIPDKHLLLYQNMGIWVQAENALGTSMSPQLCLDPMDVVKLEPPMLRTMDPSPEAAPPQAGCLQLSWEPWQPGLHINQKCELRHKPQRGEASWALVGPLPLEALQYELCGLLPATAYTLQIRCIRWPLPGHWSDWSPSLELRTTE

[5] = target: T1, G-CSFR(Ig-CRH)E design 30, purified, …; assay: SPR (Biacore T200)
[6] = target: T3, G-CSFR(Ig-CRH)E design 9, purified, tag …; assay: SPR (Biacore T200), WT G-CSF vs design receptor; steady-state derived KD relative to steady-state WT:WT KD (larger = weaker)
[7] = target: T4, G-CSFR(Ig-CRH)E design 34, purified, …; assay: as above
[8] = target: T5, G-CSFR(Ig-CRH)E design 304, purified, tag cleaved (human, UniProt Q99062 26-331); assay: SPR (Biacore T200), G-CSFR(Ig-CRH)E amine-coupled, G-CSFE injected; KD relative to WT:WT control (larger = weaker)
T5 construct: SPR protein; also called Design 304 G-CSFR(Ig-CRH)E
T5 chain: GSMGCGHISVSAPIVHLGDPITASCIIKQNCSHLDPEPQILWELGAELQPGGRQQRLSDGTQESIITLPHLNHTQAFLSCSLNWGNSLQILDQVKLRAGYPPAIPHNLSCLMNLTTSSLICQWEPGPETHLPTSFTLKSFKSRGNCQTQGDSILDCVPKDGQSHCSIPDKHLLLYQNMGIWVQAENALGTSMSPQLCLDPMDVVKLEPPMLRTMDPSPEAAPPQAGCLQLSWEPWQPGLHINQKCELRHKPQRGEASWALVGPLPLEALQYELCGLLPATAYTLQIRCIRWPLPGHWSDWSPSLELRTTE
Protocol: (§1) The SPR binding assays were carried out on a Biacore T200 instrument (GE Healthcare, Mississauga, ON, Canada) with PBS-T (PBS+0.05% (v/v) Tween 20) running buffer at a temperature of 25° C. CMS Series S sensor chip, Biacore amine coupling kit (NHS, EDC and 1 M ethanolamine), and 10 mM sodium acetate buffers were all purchased from GE Healthcare. PBS running buffer with 0.05% Tween20 (PBS-T) was purchased from Teknova Inc. (Hollister, CA).
(§2) To determine binding affinity of G-CSFE to G-CSFRE the G-CSFRE mutant was captured by standard amine coupling as described by the manufacturer (GE LifeSciences). Briefly, immediately after EDC/NHS activation, a 5 μg/mL solution of G-CSFRE in 10 mM NaOAc, pH 5.0, was injected at a flow rate of 5 μL/min until a receptor density of ˜700-900 RU was reached. The remaining active groups were quenched by a 420 s injection of 1 M ethanolamine hydrochloride-NaOH pH 8.5 at 10 μL/min. Using single-cycle kinetics, six concentrations of a two-fold dilution series of the corresponding G-CSFE mutant starting at 200 nM with a blank buffer control were sequentially injected at 25 μL/min for 300s with a 1800s dissociation phase, resulting in a set of sensorgrams with a buffer blank reference. The same sample titration was also performed on a reference cell with no variants captured. The chip was regenerated to prepare for the next injection cycle by one pulse of 10 mM glycine/HCl, pH 2.0, for 30 s at 30 μL/min.
(§3) Double-referenced sensorgrams from duplicate or triplicate repeat injections were analyzed using Biacore™ T200 Evaluation Software v3.0 and fit to the 1:1 Langmuir binding model.

[9] = target: T6, WT G-CSFR(Ig-CRH), purified, tag cleaved (human, UniProt Q99062 26-331); assay: SPR (Biacore T200), WT G-CSFR(Ig-CRH) amine-coupled
T6 construct: also called G-CSFRWT; wild type G-CSFR ECD
T6 chain: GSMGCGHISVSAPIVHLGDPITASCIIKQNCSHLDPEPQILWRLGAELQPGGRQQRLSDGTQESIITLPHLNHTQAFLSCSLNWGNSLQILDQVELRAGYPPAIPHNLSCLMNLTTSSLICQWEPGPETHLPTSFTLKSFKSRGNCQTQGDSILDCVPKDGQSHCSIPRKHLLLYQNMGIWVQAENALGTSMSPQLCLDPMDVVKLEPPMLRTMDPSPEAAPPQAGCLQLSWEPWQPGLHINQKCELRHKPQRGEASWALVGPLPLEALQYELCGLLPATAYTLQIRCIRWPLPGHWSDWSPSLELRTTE

[10] = target: T7, G-CSFR(Ig-CRH)E design 300, purified, tag cleaved (human, UniProt Q99062 26-331); assay: SPR (Biacore T200), G-CSFR(Ig-CRH)E amine-coupled, G-CSFE injected; KD relative to WT:WT control (larger = weaker)
T7 construct: SPR protein; also called Design 300 G-CSFR(Ig-CRH)E
T7 chain: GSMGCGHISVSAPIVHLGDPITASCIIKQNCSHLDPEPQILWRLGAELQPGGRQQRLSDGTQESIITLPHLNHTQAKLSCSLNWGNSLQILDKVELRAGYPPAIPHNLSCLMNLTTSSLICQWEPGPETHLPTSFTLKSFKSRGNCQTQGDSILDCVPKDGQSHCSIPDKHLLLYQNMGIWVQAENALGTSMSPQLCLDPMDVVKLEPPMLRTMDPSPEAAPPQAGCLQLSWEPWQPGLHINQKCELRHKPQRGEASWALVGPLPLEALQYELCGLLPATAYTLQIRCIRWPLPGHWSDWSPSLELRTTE
Protocol: as §1, §2, §3

[11] = target: T8, G-CSFR(Ig-CRH)E design 307, purified, tag cleaved (human, UniProt Q99062 26-331); assay: SPR (Biacore T200), G-CSFR(Ig-CRH)E amine-coupled, G-CSFE injected; steady-state derived KD relative to steady-state WT:WT KD
T8 construct: SPR protein; also called Design 307 G-CSFR(Ig-CRH)E
T8 chain: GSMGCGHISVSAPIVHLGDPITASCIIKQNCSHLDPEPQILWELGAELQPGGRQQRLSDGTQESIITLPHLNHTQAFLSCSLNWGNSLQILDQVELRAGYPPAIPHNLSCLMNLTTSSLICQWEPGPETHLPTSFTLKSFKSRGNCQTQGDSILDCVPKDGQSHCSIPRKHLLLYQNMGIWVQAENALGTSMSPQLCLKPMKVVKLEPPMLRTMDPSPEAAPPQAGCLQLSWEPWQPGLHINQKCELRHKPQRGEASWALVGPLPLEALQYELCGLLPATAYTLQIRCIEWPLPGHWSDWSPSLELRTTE
Protocol: as §2, §3
(§4) Kinetic-derived affinity constants (KD) where obtained by fitting the association and dissociation phases of the curves. […] For the cases in which the kinetic parameters could not be fit an attempt was made to derive a steady state affinity constant.

[12] = target: T9, G-CSFR(Ig-CRH)E design 402, purified, tag cleaved (human, UniProt Q99062 26-331); assay: as above
T9 construct: SPR protein; also called Design 402 G-CSFR(Ig-CRH)E
T9 chain: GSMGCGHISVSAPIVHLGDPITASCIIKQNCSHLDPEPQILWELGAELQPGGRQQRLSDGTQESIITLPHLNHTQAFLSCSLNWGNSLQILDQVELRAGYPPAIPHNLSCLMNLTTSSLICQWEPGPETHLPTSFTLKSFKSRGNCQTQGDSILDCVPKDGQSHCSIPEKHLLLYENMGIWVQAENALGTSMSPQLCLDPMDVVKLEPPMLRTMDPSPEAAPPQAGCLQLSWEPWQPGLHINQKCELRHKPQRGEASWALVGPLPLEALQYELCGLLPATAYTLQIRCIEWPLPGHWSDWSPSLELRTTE
Protocol: as §2, §3, §4

[13] = target: T10, G-CSFR(Ig-CRH)E design 303, purified, tag cleaved (human, UniProt Q99062 26-331); assay: as above
T10 construct: SPR protein; also called Design 303 G-CSFR(Ig-CRH)E
T10 chain: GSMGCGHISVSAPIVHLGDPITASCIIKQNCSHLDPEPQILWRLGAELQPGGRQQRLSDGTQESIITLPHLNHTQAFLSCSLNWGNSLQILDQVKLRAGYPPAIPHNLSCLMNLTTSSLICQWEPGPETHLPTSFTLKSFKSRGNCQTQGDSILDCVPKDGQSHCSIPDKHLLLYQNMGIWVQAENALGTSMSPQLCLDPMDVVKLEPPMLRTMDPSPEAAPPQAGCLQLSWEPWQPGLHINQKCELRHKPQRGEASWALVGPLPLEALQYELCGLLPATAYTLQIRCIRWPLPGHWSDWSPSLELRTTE
Protocol: as §2, §3, §4

B1: WT G-CSF, purified, tag cleaved (ligand)
chain: TPLGPASSLPQSFLLKCLEQVRKIQGDGAALQEKLCATYKLCHPEELVLLGHSLGIPWAPLSSCPSQALQLAGCLSQLHSGLFLYQGLLQALEGISPELGPTLDTLQLDVADFATTIWQQMEELGMAPALQPTQGAMPAFASAFQRRAGGVLVASHLQSFLEVSYRVLRHLAQAAAENLYFQ
notes: also called G-CSFWT
KD fold change (vs WT:WT) [1]: 774 fold | KD fold change (vs WT:WT) [2]: 19 fold | fold weaker affinity (vs WT:WT) [3]: 700 fold | fold weaker affinity (vs WT:WT) [4]: 700 fold | fold weaker affinity (vs WT:WT) [5]: 700 fold | KD fold change (vs WT:WT) [6]: 8810 fold | KD fold change (vs WT:WT) [7]: 4260 fold

B2: G-CSFE design 304, purified, tag cleaved (ligand)
chain: TPLGPASSLPQSFLLKCLEQVRKIQGDGAALQEKLCATYKLCHPERLVLLGHSLGIPWAPLSSCPSQALQLAGCLSQLHSGLFLYQGLLQALEGISPELGPTLDTLQKDVARFATTIWQQMEELGMAPALQPTQGAMPAFASAFQREAGGVLVASHLQSFLEVSYRVLRHLAQAAAENLYFQ
notes: also called 304 G-CSF
KD fold change (vs WT:WT) [8]: 6.5 fold | binding result [9]: no binding

B3: G-CSFE design 300, purified, tag cleaved (ligand)
chain: TPLGPASSLPQSFLLKCLEQVRKIQGDGAALQEKLCATYDDCHPEELVLLGHSLGIPWAPLSSCPSQALQLAGCLSQLHSGLFLYQGLLQALEGISPELGPTLDTLQKDVARFATTIWQQMEELGMAPALQPTQGAMPAFASAFQRRAGGVLVASHLQSFLEVSYRVLRHLAQAAAENLYFQ
notes: also called Design 300 G-CSFE
KD fold change (vs WT:WT) [10]: 194 fold | binding result [9]: no binding

B4: G-CSFE design 307, purified, tag cleaved (ligand)
chain: TPLGPASSLPQEFLLDCLKQVRKIQGDGAALQEKLCATYKLCHPERLVLLGHSLGIPWAPLSSCPSQALQLAGCLSQLHSGLFLYQGLLQALEGISPELGPTLDTLQLDVADFATTIWQQMEELGMAPALQPTQGAMPAFASAFQRRAGGVLVASHLQSFLEVSYRVLRHLAQAAAENLYFQ
notes: also called 307 G-CSF
KD fold change (vs WT:WT) [11]: 0.6 fold | binding result [9]: no binding

B5: G-CSFE design 402, purified, tag cleaved (ligand)
chain: TPLGPASSLPQSFLLKCLKQVRKIQGDGAALQEKLCATYKLCHPERLVLLGHSLGIPWAPLSSCPSQALQLAGCLSQLHSGLFLYQGLLQALEGISPELGPTLDTLQLDVAKFAKTIWQQMEELGMAPALQPTQGAMPAFASAFQRRAGGVLVASHLQSFLEVSYRVLRHLAQAAAENLYFQ
notes: also called Design 402 G-CSFE
KD fold change (vs WT:WT) [12]: 0.8 fold | binding result [9]: no binding

B6: G-CSFE design 303, purified, tag cleaved (ligand)
chain: TPLGPASSLPQSFLLKCLEQVRKIQGDGAALQEKLCATYKLCHPEELVLLGHSLGIPWAPLSSCPSQALQLAGCLSQLHSGLFLYQGLLQALEGISPELGPTLDTLQKDVARFATTIWQQMEELGMAPALQPTQGAMPAFASAFQREAGGVLVASHLQSFLEVSYRVLRHLAQAAAENLYFQ
notes: also called Design 303 G-CSFE
KD fold change (vs WT:WT) [13]: 2.2 fold | binding result [9]: no binding
